Data as given in patent publication US20260240908A1 (FRED HUTCHINSON CANCER CENTER, published 2026).

B1: VH VL S anti-PD-1 CAR BD ΔCD3ζ (other)
chain: QVQLVQSGVEVKKPGASVKVSCKASGYTFANYFMYWVRQAPGQGLEWMGGIAPAAGGAAFNEKFKNRVTLTTDSSTTTAYMELKSLQFDDTAVYYCARADFAFDMGFDYWGQGTTVTVSSASTKGGGGGSGGGGSGGGGSEIVLTQSPATLSLSPGERATLSCRASKGVSTAGFSYLHWYQQKPGQAPRLLIFLASFLESGVPARFSGSGSGTDFTLTISSLEPEDFAVYYCQHARALPLTFGGGTKVEIKRTVAAPSVFIFPPSDEQLKSGTAESKYGPPCPPCPMFWVLVVVGGVLACYSLLVTVAFIIFWVKRGRKKLLYIFKQPFMRPVQTTQEEDGCSCRFPEEEEGGCEL
notes: Residues 1-22 are the GM-CSF signal peptide, left out
B2: VH VL S anti-PD-1 CAR BD (binding-defective) (other)
chain: QVQLVQSGVEVKKPGASVKVSCKASGYTFANYFMYWVRQAPGQGLEWMGGIAPAAGGAAFNEKFKNRVTLTTDSSTTTAYMELKSLQFDDTAVYYCARADFAFDMGFDYWGQGTTVTVSSASTKGGGGGSGGGGSGGGGSEIVLTQSPATLSLSPGERATLSCRASKGVSTAGFSYLHWYQQKPGQAPRLLIFLASFLESGVPARFSGSGSGTDFTLTISSLEPEDFAVYYCQHARALPLTFGGGTKVEIKRTVAAPSVFIFPPSDEQLKSGTAESKYGPPCPPCPMFWVLVVVGGVLACYSLLVTVAFIIFWVKRGRKKLLYIFKQPFMRPVQTTQEEDGCSCRFPEEEEGGCELRVKFSRSADAPAYQQGQNQLYNELNLGRREEYDVLDKRRGRDPEMGGKPRRKNPQEGLYNELQKDKMAEAYSEIGMKGERRRGKGHDGLYQGLSTATKDTYDALHMQALPPR
notes: as for B1

What was measured:
[1] = biological target: T1, PD-1 on the cell surface (Molt-4 cells; KG PD-1 cells) (UniProt Q15116 25-288, limits assumed); experiment: flow cytometry of detectable cell surface PD-1 on Molt-4 cells that co-express the CAR (masking in cis)
T1 construct: whole, on cells; Molt-4 is a human acute lymphoblastic leukemia line; also called PD-1-expressing Molt 4 cells; K562 GFP (KG) PD-1 cells
T1 sequence (Q15116 25-288 limits assumed): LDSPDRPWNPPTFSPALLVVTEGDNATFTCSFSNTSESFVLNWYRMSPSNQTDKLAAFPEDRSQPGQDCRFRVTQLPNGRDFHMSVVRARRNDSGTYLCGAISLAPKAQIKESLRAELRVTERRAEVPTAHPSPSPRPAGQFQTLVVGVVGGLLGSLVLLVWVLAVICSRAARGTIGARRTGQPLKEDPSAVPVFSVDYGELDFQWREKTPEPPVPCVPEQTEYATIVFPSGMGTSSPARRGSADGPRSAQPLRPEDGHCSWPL

[2] = biological target: T2, PE- or biotin-conjugated human PD-1 Fc fusion protein (Acrobiosystems) (human, UniProt Q15116 25-167, limits assumed, PE- or biotin-conjugated); experiment: flow cytometry, PD-1 Fc staining of transduced Jurkat Nur77-NeonGreen cells
T2 construct: Bought reagent (Acrobiosystems); also called PD-1-Fc-PE; PD-1 Fc chimera; not shown: Fc part of the bought fusion protein
T2 sequence (Q15116 25-167 limits assumed): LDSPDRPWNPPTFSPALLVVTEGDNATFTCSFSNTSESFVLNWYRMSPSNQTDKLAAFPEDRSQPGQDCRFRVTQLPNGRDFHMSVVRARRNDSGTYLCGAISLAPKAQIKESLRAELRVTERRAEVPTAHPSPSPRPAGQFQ
Text: The biotin-conjugated PD-1-Fc protein was counterstained with BV421-conjugated Streptavidin (Invitrogen).
The EGFRt-tag was detected as a surrogate marker for CAR expression for the six constructs (FIGS. 2A and 9). CARs directed against antigens expressed in T cells may at times lead to fratricide and hamper CAR T cell production.

Binder	binding result [1]	binding result [2]
B1	no binding	no binding
B2	no binding	no binding
